Assay results taken from IntAct's records for PubMed 29892012.

B1: Glucosamine-6-phosphate deaminase 2 (Homo sapiens), Q8TDQ7 (parent)
chain: MRLVILDNYDLASEWAAKYICNRIIQFKPGQDRYFTLGLPTGSTPLGCYKKLIEYHKNGHLSFKYVKTFNMDEYVGLPRNHPESYHSYMWNNFFKHIDIDPNNAHILDGNAADLQAECDAFENKIKEAGGIDLFVGGIGPDGHIAFNEPGSSLVSRTRLKTLAMDTILANAKYFDGDLSKVPTMALTVGVGTVMDAREVMILITGAHKAFALYKAIEEGVNHMWTVSAFQQHPRTIFVCDEDATLELRVKTVKYFKGLMHVHNKLVDPLFSMKDGN
partner: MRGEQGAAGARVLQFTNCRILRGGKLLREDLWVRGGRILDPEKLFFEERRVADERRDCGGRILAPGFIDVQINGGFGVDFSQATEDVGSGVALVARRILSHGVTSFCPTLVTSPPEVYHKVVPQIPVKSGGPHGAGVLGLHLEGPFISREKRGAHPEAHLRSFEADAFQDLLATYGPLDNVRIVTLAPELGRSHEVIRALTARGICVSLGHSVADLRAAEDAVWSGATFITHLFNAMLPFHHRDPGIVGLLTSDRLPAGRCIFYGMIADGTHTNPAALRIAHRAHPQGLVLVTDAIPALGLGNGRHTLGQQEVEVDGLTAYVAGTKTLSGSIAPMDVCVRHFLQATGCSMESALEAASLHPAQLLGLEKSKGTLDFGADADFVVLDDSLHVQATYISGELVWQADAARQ
B2: Acetylcholine receptor subunit gamma (Homo sapiens), P07510 (parent)
chain: MHGGQGPLLLLLLLAVCLGAQGRNQEERLLADLMQNYDPNLRPAERDSDVVNVSLKLTLTNLISLNEREEALTTNVWIEMQWCDYRLRWDPRDYEGLWVLRVPSTMVWRPDIVLENNVDGVFEVALYCNVLVSPDGCIYWLPPAIFRSACSISVTYFPFDWQNCSLIFQSQTYSTNEIDLQLSQEDGQTIEWIFIDPEAFTENGEWAIQHRPAKMLLDPAAPAQEAGHQKVVFYLLIQRKPLFYVINIIAPCVLISSVAILIHFLPAKAGGQKCTVAINVLLAQTVFLFLVAKKVPETSQAVPLISKYLTFLLVVTILIVVNAVVVLNVSLRSPHTHSMARGVRKVFLRLLPQLLRMHVRPLAPAAVQDTQSRLQNGSSGWSITTGEEVALCLPRSELLFQQWQRQGLVAAALEKLEKGPELGLSQFCGSLKQAAPAIQACVEACNLIACARHQQSHFDNGNEEWFLVGRVLDRVCFLAMLSLFICGTAGIFLMAHYNRVPALPFPGDPRPYLPSPD
partner: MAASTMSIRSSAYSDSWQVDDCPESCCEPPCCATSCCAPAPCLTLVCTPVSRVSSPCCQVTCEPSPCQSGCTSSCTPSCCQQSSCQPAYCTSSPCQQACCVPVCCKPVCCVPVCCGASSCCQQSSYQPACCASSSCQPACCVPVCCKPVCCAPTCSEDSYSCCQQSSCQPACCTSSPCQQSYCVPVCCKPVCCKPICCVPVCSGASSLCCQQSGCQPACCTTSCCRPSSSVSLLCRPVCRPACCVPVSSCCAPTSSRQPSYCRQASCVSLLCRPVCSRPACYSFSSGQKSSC
B3: Glucosamine-6-phosphate deaminase 2 (Homo sapiens), Q8TDQ7 (parent)
chain: B1 chain
partner: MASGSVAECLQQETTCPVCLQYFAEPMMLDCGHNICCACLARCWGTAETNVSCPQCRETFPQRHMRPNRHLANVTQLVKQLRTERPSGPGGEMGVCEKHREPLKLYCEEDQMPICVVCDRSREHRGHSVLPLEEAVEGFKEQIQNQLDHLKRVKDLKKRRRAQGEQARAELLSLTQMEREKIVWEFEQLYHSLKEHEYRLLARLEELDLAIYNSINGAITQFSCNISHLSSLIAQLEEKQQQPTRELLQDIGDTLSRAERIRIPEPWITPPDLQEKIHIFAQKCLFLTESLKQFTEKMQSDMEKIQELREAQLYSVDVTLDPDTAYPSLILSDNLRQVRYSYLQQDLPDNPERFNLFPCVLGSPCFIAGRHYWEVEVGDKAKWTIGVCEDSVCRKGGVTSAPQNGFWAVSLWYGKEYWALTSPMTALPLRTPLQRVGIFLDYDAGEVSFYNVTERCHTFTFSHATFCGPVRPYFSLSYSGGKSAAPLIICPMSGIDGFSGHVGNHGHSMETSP
B4: Histone-lysine N-methyltransferase SETD5 (Homo sapiens), Q9C0A6 (parent)
chain: MSIAIPLGVTTSDTSYSDMAAGSDPESVEASPAVNEKSVYSTHNYGTTQRHGCRGLPYATIIPRSDLNGLPSPVEERCGDSPNSEGETVPTWCPCGLSQDGFLLNCDKCRGMSRGKVIRLHRRKQDNISGGDSSATESWDEELSPSTVLYTATQHTPTSITLTVRRTKPKKRKKSPEKGRAAPKTKKIKNSPSEAQNLDENTTEGWENRIRLWTDQYEEAFTNQYSADVQNALEQHLHSSKEFVGKPTILDTINKTELACNNTVIGSQMQLQLGRVTRVQKHRKILRAARDLALDTLIIEYRGKVMLRQQFEVNGHFFKKPYPFVLFYSKFNGVEMCVDARTFGNDARFIRRSCTPNAEVRHMIADGMIHLCIYAVSAITKDAEVTIAFDYEYSNCNYKVDCACHKGNRNCPIQKRNPNATELPLLPPPPSLPTIGAETRRRKARRKELEMEQQNEASEENNDQQSQEVPEKVTVSSDHEEVDNPEEKPEEEKEEVIDDQENLAHSRRTREDRKVEAIMHAFENLEKRKKRRDQPLEQSNSDVEITTTTSETPVGEETKTEAPESEVSNSVSNVTIPSTPQSVGVNTRRSSQAGDIAAEKLVPKPPPAKPSRPRPKSRISRYRTSSAQRLKRQKQANAQQAELSQAALEEGGSNSLVTPTEAGSLDSSGENRPLTGSDPTVVSITGSHVNRAASKYPKTKKYLVTEWLNDKAEKQECPVECPLRITTDPTVLATTLNMLPGLIHSPLICTTPKHYIRFGSPFIPERRRRPLLPDGTFSSCKKRWIKQALEEGMTQTSSVPQETRTQHLYQSNENSSSSSICKDNADLLSPLKKWKSRYLMEQNVTKLLRPLSPVTPPPPNSGSKSPQLATPGSSHPGEEECRNGYSLMFSPVTSLTTASRCNTPLQFELCHRKDLDLAKVGYLDSNTNSCADRPSLLNSGHSDLAPHPSLGPTSETGFPSRSGDGHQTLVRNSDQAFRTEFNLMYAYSPLNAMPRADGLYRGSPLVGDRKPLHLDGGYCSPAEGFSSRYEHGLMKDLSRGSLSPGGERACEGVPSAPQNPPQRKKVSLLEYRKRKQEAKENSAGGGGDSAQSKSKSAGAGQGSSNSVSDTGAHGVQGSSARTPSSPHKKFSPSHSSMSHLEAVSPSDSRGTSSSHCRPQENISSRWMVPTSVERLREGGSIPKVLRSSVRVAQKGEPSPTWESNITEKDSDPADGEGPETLSSALSKGATVYSPSRYSYQLLQCDSPRTESQSLLQQSSSPFRGHPTQSPGYSYRTTALRPGNPPSHGSSESSLSSTSYSSPAHPVSTDSLAPFTGTPGYFSSQPHSGNSTGSNLPRRSCPSSAASPTLQGPSDSPTSDSVSQSSTGTLSSTSFPQNSRSSLPSDLRTISLPSAGQSAVYQASRVSAVSNSQHYPHRGSGGVHQYRLQPLQGSGVKTQTGLS
partner: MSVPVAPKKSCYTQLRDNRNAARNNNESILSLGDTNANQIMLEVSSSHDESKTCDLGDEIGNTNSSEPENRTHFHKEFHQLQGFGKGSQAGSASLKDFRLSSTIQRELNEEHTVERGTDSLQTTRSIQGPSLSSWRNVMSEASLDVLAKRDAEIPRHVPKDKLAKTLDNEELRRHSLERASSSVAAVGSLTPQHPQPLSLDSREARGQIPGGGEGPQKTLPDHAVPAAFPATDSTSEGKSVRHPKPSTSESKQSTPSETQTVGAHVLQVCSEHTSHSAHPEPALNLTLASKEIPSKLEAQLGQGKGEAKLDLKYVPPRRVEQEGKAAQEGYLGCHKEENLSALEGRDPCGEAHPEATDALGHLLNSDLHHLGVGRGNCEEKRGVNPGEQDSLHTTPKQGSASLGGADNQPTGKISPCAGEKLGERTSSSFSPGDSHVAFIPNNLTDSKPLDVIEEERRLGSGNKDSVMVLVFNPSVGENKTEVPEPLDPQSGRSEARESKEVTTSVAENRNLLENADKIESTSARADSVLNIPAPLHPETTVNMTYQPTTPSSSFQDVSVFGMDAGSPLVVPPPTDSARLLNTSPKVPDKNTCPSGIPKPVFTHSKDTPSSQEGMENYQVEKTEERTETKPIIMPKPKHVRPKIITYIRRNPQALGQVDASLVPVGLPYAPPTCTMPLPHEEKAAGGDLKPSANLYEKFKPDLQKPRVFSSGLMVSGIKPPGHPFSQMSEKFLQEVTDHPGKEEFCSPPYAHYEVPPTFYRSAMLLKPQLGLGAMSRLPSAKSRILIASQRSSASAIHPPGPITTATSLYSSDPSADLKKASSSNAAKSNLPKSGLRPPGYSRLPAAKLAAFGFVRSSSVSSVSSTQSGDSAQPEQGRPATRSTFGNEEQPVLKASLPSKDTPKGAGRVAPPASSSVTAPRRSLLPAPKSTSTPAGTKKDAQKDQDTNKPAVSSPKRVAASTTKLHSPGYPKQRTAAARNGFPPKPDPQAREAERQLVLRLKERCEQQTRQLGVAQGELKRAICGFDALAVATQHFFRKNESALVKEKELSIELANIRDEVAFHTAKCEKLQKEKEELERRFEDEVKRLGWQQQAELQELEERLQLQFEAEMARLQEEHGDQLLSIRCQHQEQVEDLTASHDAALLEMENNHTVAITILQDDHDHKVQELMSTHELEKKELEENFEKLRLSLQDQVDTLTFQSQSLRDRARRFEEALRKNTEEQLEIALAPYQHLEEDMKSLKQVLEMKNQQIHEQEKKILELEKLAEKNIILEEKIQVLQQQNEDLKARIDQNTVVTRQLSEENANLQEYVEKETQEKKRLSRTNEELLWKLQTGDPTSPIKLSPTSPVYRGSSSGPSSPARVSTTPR

Variants of: B1
Settings: with naga_human AMDHD2, Q9Y303

effect of a mutation on the interaction	Variant
with no effect	I216V

Variants of: B2
Settings: with kr109_human KRTAP10-9, P60411

effect of a mutation on the interaction	Variant
with no effect	I448T

Variants of: B3
Settings: with tri27_human TRIM27, P14373

effect of a mutation on the interaction	Variant
with no effect	I216V

Variants of: B4
Settings: with mtus2_human MTUS2, Q5JR59

effect of a mutation on the interaction	Variant
with no effect	G669R
